Test results taken from US8138140B2, “Self-assembling peptide amphiphiles and related methods for growth factor delivery” (Northwestern University, priority 2003, dated 2012).
Ends that are not written are not given here. Peptide text beside a SMILES is read from it. * marks the point of attachment. Palmitoyl = CCCCCCCCCCCCCCCC(=O)*; NH(CH2)11CH3 = CCCCCCCCCCCCN*

Biological target: T1, rh-BMP-2 (Homo sapiens, UniProt P12643)
T1 construct: purchased Peprotech
T1 sequence (P12643 283-396): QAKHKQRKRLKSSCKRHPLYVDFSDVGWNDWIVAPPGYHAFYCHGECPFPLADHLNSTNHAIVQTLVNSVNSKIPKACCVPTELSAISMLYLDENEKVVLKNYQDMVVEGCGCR
Assay: ELISA screening of phage display clones, relative binding strengths
Design: key to relative binding strength of selected clone (numeric coding): highest (1); 2: in decreasing binding strength from highest (1) to lowest (4); 3: in decreasing binding strength from highest (1) to lowest (4); lowest (4)
Conditions: BMP-2 coated plates, ELISA
Excerpt: (§1) Phage display is typically used to find receptor-blocking peptides, i.e. sequences with high binding constants. To transfer a growth factor from the PA binding site to the cell receptor, an extremely high binding constant is not required and might even be unfavorable. Therefore, the 7-mer commercial phage library was elected over the […], aiming at intermediate binding strengths. Growth factors were physisorbed onto 96-well plates and subsequently exposed to the phage library. After incubation at room temperature for 60 minutes, the unbound phage was removed by rinsing with detergent solution. Bound phage was subsequently eluted by incubating with a growth factor solution for 60 minutes. The recovered phages were amplified for 4 h in E Coli at 37° C. and the panning was repeated two more times. In subsequent panning rounds, the stringency was increased by raising the detergent concentration and reducing the exposure time to the library. The final phage population was plated and the DNA of 10 clones of colonies containing only one phage type were sequenced. Next, ELISA screening was used to test for false positives and determine relative binding strengths of the selected clones. […] (See Table 1, below.)
(§2) Phage display was performed with the Ph.D. 7 kit (New England […]). Fifty microliters of diluted M13-phage library (containing 2×10^9 phages and all possible 7-mer sequences) were added to 96-well microtiter plates, which had been exposed to 50 μl 10 μg/ml growth factor (peprotech) solution for 18 h at 0° C. The plates were blocked for 1 h then incubated at room temperature for 60 minutes with gentle agitation. Unbound phage was removed by rinsing with TBS/Tween-20 (0.1% v/v Tween-20). Bound phage was subsequently eluted by incubating with 50 μl growth factor solution for 60 minutes. The presence of binding phage was determined by serial dilution of the phages and subsequent plating with E. Coli on agar plates. The number of plaques formed can be related to the number of phages in the original mixture. The phages were subsequently amplified for 4 h in E. Coli at 37° C. In subsequent panning rounds, the concentration of Tween-20 was raised to 0.5% and the binding and elution times were decreased and increased, respectively, to increase the stringency of the selection process. After three rounds of panning, the recovered phage mixture is diluted and plated with bacteria on agar. Subsequently, plaques are isolated containing a single DNA sequence. After purification, ten clones were sequenced. Next, ELISA screening was used to eliminate false positives and determine relative binding strengths of the selected clones. Each clone was incubated for 1 h on growth factor coated microtiter plates, the plates were rinsed with TBS/Tween-20 and subsequently HRP-conjugated anti-M13 antibody (Amersham Biosciences) was incubated for 1 h. After addition of ABTS, the absorbance at 450 nm was measured after 30 minutes to determine the relative binding strengths of the isolated clones. The strongest binder was subsequently selected.

Row | Molecule | relative binding strength of selected clone (numeric coding)
1 | KQALTQT | KQALTQT (3)
2 | KVPPANT | KVPPANT (3)
3 | LHYPFMT | LHYPFMT (3)
4 | PFDPPVR | PFDPPVR (2)
5 | QQTQAQH | QQTQAQH (4)
6 | WPALFTH | WPALFTH (3)

Second part, the molecule after the results:

Row | relative binding strength of selected clone (numeric coding) | Molecule
7 | DVSPAYH (3) | DVSPAYH
8 | PGPTVQG (2) | PGPTVQG
9 | PIQPDER (2) | PIQPDER
10 | YPVHPST (1) | YPVHPST

Same assay, conditions: phage display and ELISA screening

Row | binding to BMP-2 (in words) | Molecule
11 | best binding epitope | YPVHPST

Biological target: T2, rh-TGF-β1 (Homo sapiens, UniProt P01137)
T2 construct: purchased Peprotech
T2 sequence (P01137 279-390 limits assumed): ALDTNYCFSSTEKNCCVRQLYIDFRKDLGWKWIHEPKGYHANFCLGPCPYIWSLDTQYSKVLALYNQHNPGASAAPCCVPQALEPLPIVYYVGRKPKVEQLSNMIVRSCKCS
Assay: as above
Design: key to relative binding strength of selected clone (numeric coding): highest (1); 2: in decreasing binding strength from highest (1) to lowest (4); 3: in decreasing binding strength from highest (1) to lowest (4); lowest (4)
Conditions: TGF-β1 coated plates, ELISA
Excerpt: as §1, §2

Row | Molecule | relative binding strength of selected clone (numeric coding)
12 | LPLGNSH | LPLGNSH (1)
13 | LPSPIQK | LPSPIQK (2)
14 | LRNYSHS | LRNYSHS (3)
15 | PAPRWIH | PAPRWIH (3)
16 | RTTSPTA | RTTSPTA (3)

The remaining lines, values ahead:

Row | relative binding strength of selected clone (numeric coding) | Molecule
17 | AWKSVTA (3) | AWKSVTA
18 | GKYPPTS (3) | GKYPPTS
19 | RVSTWDT (3) | RVSTWDT
20 | VYRHLPT (2) | VYRHLPT

Same assay, conditions: phage display and ELISA screening

Row | binding to TGF-β1 (in words) | Molecule
21 | best binding epitope | LPLGNSH

System: vascular endothelial growth factor (VEGF)
Assay: Phage display binding sequences (12-mer kit)
Design: key: * denotes the strongest binders
Conditions: 12-mer phage display kit
Procedure: (§3) Numerous binding sequences were determined for vascular endothelial growth factor (VEGF), both with 7- and 12-mer phage display kit, basic fibroblast growth factor (FGF-2), neurotrophin-3 (NT-3) and laminin-5; * denotes the strongest binders: […]

Row | strongest binders | Molecule
22 | PLTPSALLPIFE* | PLTPSALLPIFE
23 | PTPLKVRLHSYN* | PTPLKVRLHSYN
24 | VSILSTIPNSMT* | VSILSTIPNSMT

System: laminin-5
Assay: Phage display binding sequences
Design: key: * denotes the strongest binders
Conditions: not given
Procedure: as §3

Row | strongest binders | Molecule
25 | RYHPHLH* | RYHPHLH

System: mesenchymal stem cells
Assay: Mesenchymal stem cells cultured in PA gels with TGF-β1, lineage markers
Type: cell-based, Human
Conditions: TGF-β1 up to 20 ng/ml, 10 days

Row | Molecule | Collagen II expression | α-smooth muscle actin expression
26 | Asp(CONHC12)-Val-Val-Val-Ala-Ala-Ala-Lys-Lys-Lys-Ser-Gly-Gly-G-ly-Leu-Pro-Leu-Gly-Gln-Ser-His-NH2 [PA 10] | higher for the binding gels | higher in the binding gels than in the nonbinding gels

System: not listed separately
Assay: Acid-base (pKa) titrations of PA aggregates
Conditions: 3 mM, aggregated state
Procedure: Acid-Base titrations. pKa titrations were preformed on PAs 1-4 in the range of pH 2-10 with a Fisher Accumet pH meter at a concentration of 3.5 mg/mL in 100 mM KCl. For the acidic PAs 2 and 4, 0.1N KOH was added in 1-5 μL increments, starting at low pH, whereas for the basic PAs 1 and 3, 0.1N HCl was added in 1-5 μL increments, starting at a high pH.
pKa titrations of aggregates of molecules 1-4 were carried out at a concentration of 3 mM. All titrations were started at a pH where the molecules were already in their aggregated state in order to avoid kinetic effects due to self-assembly.

Row | Molecule | apparent pKa of aggregates (titration curve)
27 | CCCCCCCCCCCCCCCC(=O)N[C@H](C(=O)N[C@H](C(=O)N[C@H](C(=O)N[C@@H](C)C(=O)N[C@@H](C)C(=O)N[C@@H](C)C(=O)N[C@@H](CCC(=O)O)C(=O)N[C@@H](CCC(=O)O)C(=O)N[C@@H](CCC(=O)O)C(=O)O)C(C)C)C(C)C)C(C)C [PA 2] (Palmitoyl-VVVAAAEEE-OH) | complex curves with transitions occurring over wide ranges
28 | Asp(CONHC12)-Val-Val-Val-Ala-Ala-Ala-Glu-Glu-Glu-NH2 (D(NH(CH2)11CH3)VVVAAAEEE-NH2; N-terminus assumed; SMILES CCCCCCCCCCCCNC(=O)C[C@H](N)C(=O)N[C@H](C(=O)N[C@H](C(=O)N[C@H](C(=O)N[C@@H](C)C(=O)N[C@@H](C)C(=O)N[C@@H](C)C(=O)N[C@@H](CCC(=O)O)C(=O)N[C@@H](CCC(=O)O)C(=O)N[C@@H](CCC(=O)O)C(N)=O)C(C)C)C(C)C)C(C)C) [PA 4] | complex curves with transitions occurring over wide ranges
